Data as given in article doi:10.1101/807917.

Target: E. coli 30S initiation complex (30S IC) lacking IF2 and IF3 (E. coli) (UniProt P69222)
Experiment: FRET or BRET

Chain of UniProt P69222 (P69222 whole entry, looked up, one chain of several): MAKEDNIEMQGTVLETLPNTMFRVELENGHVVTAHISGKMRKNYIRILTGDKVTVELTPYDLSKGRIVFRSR

Which fold change of Kd, IF2 bound to ppGpp relative to IF2 bound to GTP does the source give for “Cy5-labeled Initiation Factor 2 (IF2), E. coli (from UniProt P0A705 1-890) (natural protein)” here?
Its fold change of Kd, IF2 bound to ppGpp relative to IF2 bound to GTP is 10 fold.
